Laboratory results reported in patent publication US20240043537A1.
Changes are numbered by the printed parent chain. Blank lines part the entries; values can stand above or below the binder they belong to.

Tests used:
CD3 on T-cells = CD3 on T-cells (UniProt P07766); assay: cell-based or functional assay
[1] = molecular target: CD3 (as used for the BIACORE kinetics of Table 11) (UniProt P07766); assay: SPR (BIACORE)
CD3 (as used for the BIACORE kinetics of Table 11), sequence (P07766 23-126): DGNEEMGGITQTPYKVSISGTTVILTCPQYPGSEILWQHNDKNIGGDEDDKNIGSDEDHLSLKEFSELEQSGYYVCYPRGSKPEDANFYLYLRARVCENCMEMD

CD3 on T-cells, sequence (P07766 23-207): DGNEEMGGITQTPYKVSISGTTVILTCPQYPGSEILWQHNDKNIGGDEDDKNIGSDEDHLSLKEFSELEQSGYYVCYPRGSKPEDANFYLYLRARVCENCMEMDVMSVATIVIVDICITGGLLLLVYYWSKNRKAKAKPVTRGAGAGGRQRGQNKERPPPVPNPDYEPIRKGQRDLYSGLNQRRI

- EC50 of cytolysis at 18 hours (CTL assay, Pan-T-cells and MOLM-13, E:T = 5:1) (CD3 on T-cells): 0.259 ng/mL
- EC50 of cytolysis at 42 hours (CTL assay, Pan-T-cells and MOLM-13, E:T = 5:1) (CD3 on T-cells): 0.038 ng/mL
- R: ratio of 18 hour EC50 to DART-A-WT (CTL assay, Pan-T-cells and MOLM-13, E:T = 5:1) (CD3 on T-cells): 3.3
- R: ratio of 42 hour EC50 to DART-A-WT (CTL assay, Pan-T-cells and MOLM-13, E:T = 5:1) (CD3 on T-cells): 13.5
- Kd [1]: 18.9 nM
- R (KD ratio to DART-A-WT) [1]: 2.3
- R (ka ratio to DART-A-WT) [1]: 7.7
- R (kd ratio to DART-A-WT) [1]: 18
- koff [1]: 0.0732 s⁻¹
- kon [1]: 3.87e+06 M⁻¹ s⁻¹
B6: DART-A-M20 (bispecific antibody)
chain 1: DFVMTQSPDSLAVSLGERVTMSCKSSQSLLNSGNQKNYLTWYQQKPGQPPKLLIYWASTRESGVPDRFSGSGSGTDFTLTISSLQAEDVAVYYCQNDYSYPYTFGQGTKLEIKGGGSGGGGEVQLVESGGGLVQPGGSLRLSCAASGFTFSTYAMNWVRQAPGKGLEWVGRIRSKYNNYATYYADSVKDRFTISRDDSKNSLYLQMNSLKTEDTAVYYCVRHKNFGNSGVSWFAYWGQGTLVTVSSGGCGGGKVAALKEKVAALKEKVAALKEKVAALKE
chain 2: QAVVTQEPSLTVSPGGTVTLTCRSSTGAVTTSNYANWVQQKPGQAPRGLIGGTNKRAPWTPARFSGSLLGGKAALTITGAQAEDEADYYCALWYSNLWVFGGGTKLTVLGGGGSGGGGEVQLVQSGAELKKPGASVKVSCKASGYTFTDYYMKWVRQAPGQGLEWIGDIIPSNGATFYNQKFKGRVTITVDKSTSTAYMELSSLRSEDTAVYYCARSHLLRASWFAYWGQGTLVTVSSGGCGGGEVAALEKEVAALEKEVAALEKEVAALEK
- max % CytoTox at 18 hours (CTL assay, Pan-T-cells and MOLM-13, E:T = 5:1) (CD3 on T-cells): 37.5%
- max % CytoTox at 42 hours (CTL assay, Pan-T-cells and MOLM-13, E:T = 5:1) (CD3 on T-cells): 30.9%

- EC50 of cytolysis at 18 hours (CTL assay, Pan-T-cells and MOLM-13, E:T = 5:1) (CD3 on T-cells): 0.304 ng/mL
- EC50 of cytolysis at 42 hours (CTL assay, Pan-T-cells and MOLM-13, E:T = 5:1) (CD3 on T-cells): 0.03 ng/mL
- R: ratio of 18 hour EC50 to DART-A-WT (CTL assay, Pan-T-cells and MOLM-13, E:T = 5:1) (CD3 on T-cells): 3.8
- R: ratio of 42 hour EC50 to DART-A-WT (CTL assay, Pan-T-cells and MOLM-13, E:T = 5:1) (CD3 on T-cells): 10.8
- Kd [1]: 22.5 nM
- R (KD ratio to DART-A-WT) [1]: 2.8
- R (ka ratio to DART-A-WT) [1]: 2
- R (kd ratio to DART-A-WT) [1]: 5.6
- koff [1]: 0.0229 s⁻¹
- kon [1]: 1.02e+06 M⁻¹ s⁻¹
B7: DART-A-M7 (bispecific antibody)
chain 1: B6 chain 1 with K223D, G229Y
chain 2: B6 chain 2
- max % CytoTox at 18 hours (CTL assay, Pan-T-cells and MOLM-13, E:T = 5:1) (CD3 on T-cells): 41.4%
- max % CytoTox at 42 hours (CTL assay, Pan-T-cells and MOLM-13, E:T = 5:1) (CD3 on T-cells): 32.5%

- EC50 of cytolysis at 18 hours (CTL assay, Pan-T-cells and MOLM-13, E:T = 5:1) (CD3 on T-cells): 0.68 ng/mL
- EC50 of cytolysis at 42 hours (CTL assay, Pan-T-cells and MOLM-13, E:T = 5:1) (CD3 on T-cells): 0.11 ng/mL
- R: ratio of 18 hour EC50 to DART-A-WT (CTL assay, Pan-T-cells and MOLM-13, E:T = 5:1) (CD3 on T-cells): 8.6
- R: ratio of 42 hour EC50 to DART-A-WT (CTL assay, Pan-T-cells and MOLM-13, E:T = 5:1) (CD3 on T-cells): 39.1
- Kd [1]: 54.6 nM
- R (KD ratio to DART-A-WT) [1]: 6.7
- R (ka ratio to DART-A-WT) [1]: 1.5
- R (kd ratio to DART-A-WT) [1]: 10
- koff [1]: 0.0411 s⁻¹
- kon [1]: 753000 M⁻¹ s⁻¹
B9: DART-A-M19 (bispecific antibody)
chain 1: B6 chain 1 with F225I, G229Y
chain 2: B6 chain 2
- max % CytoTox at 18 hours (CTL assay, Pan-T-cells and MOLM-13, E:T = 5:1) (CD3 on T-cells): 41%
- max % CytoTox at 42 hours (CTL assay, Pan-T-cells and MOLM-13, E:T = 5:1) (CD3 on T-cells): 32.8%

- EC50 of cytolysis at 18 hours (CTL assay, Pan-T-cells and MOLM-13, E:T = 5:1) (CD3 on T-cells): 0.426 ng/mL
- EC50 of cytolysis at 42 hours (CTL assay, Pan-T-cells and MOLM-13, E:T = 5:1) (CD3 on T-cells): 0.095 ng/mL
- R: ratio of 18 hour EC50 to DART-A-WT (CTL assay, Pan-T-cells and MOLM-13, E:T = 5:1) (CD3 on T-cells): 5.4
- R: ratio of 42 hour EC50 to DART-A-WT (CTL assay, Pan-T-cells and MOLM-13, E:T = 5:1) (CD3 on T-cells): 33.7
- Kd [1]: 43.3 nM
- R (KD ratio to DART-A-WT) [1]: 5.3
- R (ka ratio to DART-A-WT) [1]: 1.4
- R (kd ratio to DART-A-WT) [1]: 7.6
- koff [1]: 0.031 s⁻¹
- kon [1]: 717000 M⁻¹ s⁻¹
B10: DART-A-M10 (bispecific antibody)
chain 1: B6 chain 1 with K223G, F225I, G229Y
chain 2: B6 chain 2
- max % CytoTox at 18 hours (CTL assay, Pan-T-cells and MOLM-13, E:T = 5:1) (CD3 on T-cells): 39.3%
- max % CytoTox at 42 hours (CTL assay, Pan-T-cells and MOLM-13, E:T = 5:1) (CD3 on T-cells): 29.9%

Further lines, the binder ahead of its results:

B1: DART-A-M21 (bispecific antibody)
chain 1: B6 chain 1 with G229Y, W232F
chain 2: B6 chain 2
- EC50 of cytolysis at 18 hours (CTL assay, Pan-T-cells and MOLM-13, E:T = 5:1) (CD3 on T-cells): 0.026 ng/mL
- R: ratio of 18 hour EC50 to DART-A-WT (CTL assay, Pan-T-cells and MOLM-13, E:T = 5:1) (CD3 on T-cells): 0.3
- R: ratio of 42 hour EC50 to DART-A-WT (CTL assay, Pan-T-cells and MOLM-13, E:T = 5:1) (CD3 on T-cells): 0
- max % CytoTox at 18 hours (CTL assay, Pan-T-cells and MOLM-13, E:T = 5:1) (CD3 on T-cells): 36.5%
- max % CytoTox at 42 hours (CTL assay, Pan-T-cells and MOLM-13, E:T = 5:1) (CD3 on T-cells): 29.9%
- Kd [1]: 4.18 nM
- R (KD ratio to DART-A-WT) [1]: 0.5
- R (ka ratio to DART-A-WT) [1]: 4.9
- R (kd ratio to DART-A-WT) [1]: 2.5
- koff [1]: 0.0103 s⁻¹
- kon [1]: 2.45e+06 M⁻¹ s⁻¹

B2: DART-A-M14 (bispecific antibody)
chain 1: B6 chain 1 with T152D, K223G, G229Y
chain 2: B6 chain 2
- EC50 of cytolysis at 18 hours (CTL assay, Pan-T-cells and MOLM-13, E:T = 5:1) (CD3 on T-cells): 0.492 ng/mL
- EC50 of cytolysis at 42 hours (CTL assay, Pan-T-cells and MOLM-13, E:T = 5:1) (CD3 on T-cells): 0.11 ng/mL
- R: ratio of 18 hour EC50 to DART-A-WT (CTL assay, Pan-T-cells and MOLM-13, E:T = 5:1) (CD3 on T-cells): 6.2
- R: ratio of 42 hour EC50 to DART-A-WT (CTL assay, Pan-T-cells and MOLM-13, E:T = 5:1) (CD3 on T-cells): 39.3
- max % CytoTox at 18 hours (CTL assay, Pan-T-cells and MOLM-13, E:T = 5:1) (CD3 on T-cells): 44.7%
- max % CytoTox at 42 hours (CTL assay, Pan-T-cells and MOLM-13, E:T = 5:1) (CD3 on T-cells): 31.4%
- Kd [1]: 46.6 nM
- R (KD ratio to DART-A-WT) [1]: 5.7
- R (ka ratio to DART-A-WT) [1]: 0.6
- R (kd ratio to DART-A-WT) [1]: 3.5
- koff [1]: 0.0143 s⁻¹
- kon [1]: 308000 M⁻¹ s⁻¹

B3: DART-A-M13 (bispecific antibody)
chain 1: B6 chain 1 with K223G, G229Y, Y235E
chain 2: B6 chain 2
- EC50 of cytolysis at 18 hours (CTL assay, Pan-T-cells and MOLM-13, E:T = 5:1) (CD3 on T-cells): 1.22 ng/mL
- EC50 of cytolysis at 42 hours (CTL assay, Pan-T-cells and MOLM-13, E:T = 5:1) (CD3 on T-cells): 0.203 ng/mL
- R: ratio of 18 hour EC50 to DART-A-WT (CTL assay, Pan-T-cells and MOLM-13, E:T = 5:1) (CD3 on T-cells): 15.5
- R: ratio of 42 hour EC50 to DART-A-WT (CTL assay, Pan-T-cells and MOLM-13, E:T = 5:1) (CD3 on T-cells): 72.3
- max % CytoTox at 18 hours (CTL assay, Pan-T-cells and MOLM-13, E:T = 5:1) (CD3 on T-cells): 45.1%
- max % CytoTox at 42 hours (CTL assay, Pan-T-cells and MOLM-13, E:T = 5:1) (CD3 on T-cells): 31.5%
- Kd [1]: 68.6 nM
- R (KD ratio to DART-A-WT) [1]: 8.4
- R (ka ratio to DART-A-WT) [1]: 0.6
- R (kd ratio to DART-A-WT) [1]: 5.4
- koff [1]: 0.022 s⁻¹
- kon [1]: 321000 M⁻¹ s⁻¹

B4: DART-A-M17 (bispecific antibody)
chain 1: B6 chain 1 with Y153T, K223G, G229Y
chain 2: B6 chain 2
- EC50 of cytolysis at 18 hours (CTL assay, Pan-T-cells and MOLM-13, E:T = 5:1) (CD3 on T-cells): 1.28 ng/mL
- EC50 of cytolysis at 42 hours (CTL assay, Pan-T-cells and MOLM-13, E:T = 5:1) (CD3 on T-cells): 0.126 ng/mL
- R: ratio of 18 hour EC50 to DART-A-WT (CTL assay, Pan-T-cells and MOLM-13, E:T = 5:1) (CD3 on T-cells): 16.2
- R: ratio of 42 hour EC50 to DART-A-WT (CTL assay, Pan-T-cells and MOLM-13, E:T = 5:1) (CD3 on T-cells): 44.9
- max % CytoTox at 18 hours (CTL assay, Pan-T-cells and MOLM-13, E:T = 5:1) (CD3 on T-cells): 44.2%
- max % CytoTox at 42 hours (CTL assay, Pan-T-cells and MOLM-13, E:T = 5:1) (CD3 on T-cells): 30.7%
- Kd [1]: 57.2 nM
- R (KD ratio to DART-A-WT) [1]: 7
- R (ka ratio to DART-A-WT) [1]: 1.7
- R (kd ratio to DART-A-WT) [1]: 12
- koff [1]: 0.0478 s⁻¹
- kon [1]: 837000 M⁻¹ s⁻¹

B5: DART-A-M5 (bispecific antibody)
chain 1: B6 chain 1 with K223G
chain 2: B6 chain 2
- EC50 of cytolysis at 18 hours (CTL assay, Pan-T-cells and MOLM-13, E:T = 5:1) (CD3 on T-cells): 0.225 ng/mL
- EC50 of cytolysis at 42 hours (CTL assay, Pan-T-cells and MOLM-13, E:T = 5:1) (CD3 on T-cells): 0.011 ng/mL
- R: ratio of 18 hour EC50 to DART-A-WT (CTL assay, Pan-T-cells and MOLM-13, E:T = 5:1) (CD3 on T-cells): 2.9
- R: ratio of 42 hour EC50 to DART-A-WT (CTL assay, Pan-T-cells and MOLM-13, E:T = 5:1) (CD3 on T-cells): 3.8
- max % CytoTox at 18 hours (CTL assay, Pan-T-cells and MOLM-13, E:T = 5:1) (CD3 on T-cells): 40.8%
- max % CytoTox at 42 hours (CTL assay, Pan-T-cells and MOLM-13, E:T = 5:1) (CD3 on T-cells): 28.4%
- Kd [1]: 21.4 nM
- R (KD ratio to DART-A-WT) [1]: 2.6
- R (ka ratio to DART-A-WT) [1]: 2.6
- R (kd ratio to DART-A-WT) [1]: 6.8
- koff [1]: 0.028 s⁻¹
- kon [1]: 1.31e+06 M⁻¹ s⁻¹

B8: DART-A-M16 (bispecific antibody)
chain 1: B6 chain 1 with Y153D, K223G, G229Y
chain 2: B6 chain 2
- Kd [1]: 301 nM
- R (KD ratio to DART-A-WT) [1]: 37
- R (ka ratio to DART-A-WT) [1]: 0.7
- R (kd ratio to DART-A-WT) [1]: 25
- koff [1]: 0.104 s⁻¹
- kon [1]: 347000 M⁻¹ s⁻¹
